experiment: soluble on expression in E. coli; label from the status in PepcDB or PDB records

Sequence	soluble on expression in E. coli
MTSNFREYLFAPDHPRLAELRELDAYAYRTVARRPGTFTGDLVAGWTPLYKNEFRGVTEDGTLREDVHCLEPARAGEAAPVPEMVAAAADLLAGLDDESRERIRYRVDAPEWQTWANPEFMQFDTGIRLEFQSEDVRRKALRLMASSLSPQGYELARNMMLINGFLGEVVGLPGILNEFSYNMAIYGTPHETRPWGWQVFGHHLAVNCFVVDGRMVISPLFLGAEPNEIDEGEHAGVTSFGTRIELGLALMAELTPEQRCAATVYEQMVDPAMPPGRVHPGDERHLAGAFQDNRQIPFEGVRVADLSCRAQELVLEIVEQFVALLPDGPRAARMREVRKMLSQTWFSWIGGHRPGDVFYYRVQSPVIIAELDHHCGVFLDYDTPKPFHIHTVVRTPHGNDYGRAYLRQWEQGHRLEHHHHHH	soluble
MAACGNPSAAVKFERLPTFAEPTHYNVRLSPCLNQFSFDGHATIDVTIKEATDVLKVHAQSLLIQSVSLITQPGDASKSLETSYDDKLNILTIKLPTTMQPQKVQLDFKFVGELNDKMRGFYRSQYKDKNGTEKFLASTQFESTYARYAFPCFDEPIYKATFDVTLEVENHLTALSNMNVISETPTADGKRKAVTFATSPKMSSYLVAFAVGELEYISAQTKSGVEMRVYTVPGKKEQGQYSLDLSVKCIDWYNEWFDIKYPLPKCDLIAIPDFSMGAMENWGLVTYREIALLVDPGVTSTRQKSRVALVVAHELAHLWFGNLVTMKWWTDLWLKEGFASFMEYMFVGANCPEFKIWLHFLNDELASGMGLDALRNSHPIEVEIDNPNELDEIYDSITYAKSNSVNRMLCYYLSEPVFQKGLRLYLKRFQYSNAVTQDLWTALSEASGQNVNELMSGWTQQMGFPVLKVSQRQDGNNRILTVEQRRFISDGGEDPKNSQWQVPITVAVGSSPSDVKARFLLKEKQQEFTIEGVAPGEWVKLNSGTTGFYRVEYSDEMLTAMLPDIASRRMPVLDRFGLINDLSALLNTGRVSIAQFVQVAASSAKEDEYVVWGAIDEGMSKLLACAREMSEDTLKSAKQLVVKMFEQTGAELGFAEQAGEDSQKMMLRSLVQARLARAGHQPTIDKFTQMFNDFLEKGTPIHPDIRLATFGVVARYGGKEGFDKLMNLRETTTFQEIERQTMVAMSQTPEESLLAQLFEYGFEKNKVRPQDQLYLFLGTGATHMGQQYAWKYFCEHIKEFLDKYGGANSSLFQRCLKFAGESFGNEKRAVEFQDFFCNCNVLSDTDRQTLARPIGQTVEAIRLNARLLESNRQIIENLLKQSNV	not soluble
MTKALFFDIDGTLVSFETHRIPSSTIEALEAAHAKGLKIFIATGRPKAIINNLSELQDRNLIDGYITMNGAYCFVGEEVIYKSAIPQEEVKAMAAFCEKKGVPCIFVEEHNISVCQPNEMVKKIFYDFLHVNVIPTVSFEEASNKEVIQMTPFITEEEEKEVLPSIPTCEIGRWYPAFADVTAKGDTKQKGIDEIIRHFGIKLEETMSFGDGGNDISMLRHAAIGVAMGQAKEDVKAAADYVTAPIDEDGISKAMKHFGII	soluble
MAQFVYTMHRVGKVVPPKRHILKNISLSFFPGAKIGVLGLNGAGKSTLLRIMAGIDKDIEGEARPQPDIKIGYLPQEPQLNPEHTVRESIEEAVSEVVNALKRLDEVYALYADPDADFDKLAAEQGRLEEIIQAHDGHNLNVQLERAADALRLPDWDAKIANLSGGERRRVALCRLLLEKPDMLLLDEPTNHLDAESVAWLERFLHDFEGTVVAITHDRYFLDNVAGWILELDRGEGIPWEGNYSSWLEQKDQRLAQEASQEAARRKSIEKELEWVRQGTKGRQSKGKARLARFEELNSTEYQKRNETNELFIPPGPRLGDKVLEVSNLRKSYGDRLLIDDLSFSIPKGAIVGIIGPNGAGKSTLFRMISGQEQPDSGTITLGETVKLASVDQFRDSMDNSKTVWEEVSGGLDIMKIGNTEMPSRAYVGRFNFKGVDQGKRVGELSGGERGRLHLAKLLQVGGNMLLLDEPTNDLDIETLRALENALLEFPGCAMVISHDRWFLDRIATHILDYQDEGKVEFFEGNFTEYEEYKKRTLGADALEPKRIKYKRIAK	soluble
SVPQISQPHFLLDGLSSQPLFNDIAAGIPSITAYSKNGLKIEFTFERSNTNPSVTVITIQASNSTELDMTDFVFQAAVPKTFQLQLLSPSSSIVPAFNTGTITQVIKVLNPQKQQLRMRIKLTYNHKGSAMQDLAEVNNFPPQSWQ	soluble
SVMYEEDFVLNSRGMKLFTCVWKPVKQEPKALLFLCHGYAMESSITMNSAATRLANAGFAVYGMDYEGHGKSEGLNGYISNFDDLVDDVSNHYSTICEREENKGKMRFLLGESMGGAVVLLLARKKPDFWDGAVLVAPMCKLADEIKPHPVVISILIKLAKFIPTWKIVPGNDIIDIAIKEPHIRNQVRENKYCYKGRPRLNTAYQLLLVSLDLEKNLHQVSIPFIVLYGEDDKVTDKSISKMLYEVASSSDKTFKLYPKMWHALLYGETNENSEIVFGDIINWLEDRATDSNGGLESQLKHKHDGFLKHK	soluble
MGSDKIHHHHHHMPKLVTWMNNQRVGELTKLANGAHTFKYAPEWLASRYARPLSLSLPLQRGNITSDAVFNFFDNLLPDSPIVRDRIVKRYHAKSRQPFDLLSEIGRDSVGAVTLIPEDETVTHPIMAWEKLTEARLEEVLTAYKADIPLGMIREENDFRISVAGAQEKTALLRIGNDWCIPKGITPTTHIIKLPIGEIRQPNATLDLSQSVDNEYYCLLLAKELGLNVPDAEIIKAGNVRALAVERFDRRWNAERTVLLRLPQEDMCQTFGLPSSVKYESDGGPGIARIMAFLMGSSEALKDRYDFMKFQVFQWLIGATDGHAKNFSVFIQAGGSYRLTPFYDIISAFPVLGGTGIHISDLKLAMGLNASKGKKTAIDKIYPRHFLATAKVLRFPEVQMHEILSDFARMIPAALDNVKTSLPTDFPENVVTAVESNVLRLHGRLSREYGSK	not soluble
MLQPPTLTPNANGEEFRGSVSTDRSSASPSNIDEIMEDDVNQKDEDEDLNLVDRVSKLETNFVFIQHQLSSIMNHLHAPQCKCTTCSKVNQPGAEEQKNDTSVLSQLFPNASDQQLKTLLDLSKMNKLPSQVVHKDQQNGSSFLPSANKTSENPKPIELKPLKLGQGYQMANGGGGGKIHTERLSEPARKQSRKVGFPPPVASYYQRKESSNPLVPPTPLSSIPNLITNSNAVSANTSTASPGPSSEGSGDDHLEAPNEVAHMHSSTVPATPTTPGANLFTQSMVDMLKLNAQNAAHSTGSPGFLRGRGRGRPKLIGDELDADLVDYMVSLKNSDPHGGHFTASQALHMARQYILERAPGLLEEHGGHVKLKLTWAMKLVSRIGERQREIELGLPAGTLSNMGRNLTNIPAGGNFMADMMAQNIFSQHMMMVNQQLEGGSPPASSSSTATTSTATKTVKQESKNGHQNEENLNVKQEASTMPEIINIKELNLPFLNNFLAELNDNNSGLIDGEIGAAGPSMAALFAPNA	not soluble
NFLDFEKPIVELETKIQALRDVSRHSTSASVDLDKELEQLEKKSLELKKKIFSDLGAWQVAQLARHPQRPYTLDYLKHIFTEFDELAGDRAYADDKAIVGGIARLEGRSVMVIGHQKGRETREKVKRNFGMPKPEGYRKALRLMEMAERFNM	not soluble
MGSDKIHHHHHHMINVLILGAASQISRFLIPDLLADKTVYLTLFARQAPQRLGQYAGESRVTLVDGDWNQEADIEQVMSNQDIVFLASSSLVGNQNVVTVMKHTGVQRLIVAGGLGIDDEVAGKFGNWNTRMMGDYTPYKQAAKVILDSGLNTTYLRMTWLYDENGNEKYQIVPEGQPLRGTQVTRQAVAKLVTAIVRQPSLYQYANIGVVEPGTEWDKPSFY	not soluble
MPIMLEDYQKNFLELAIECQALRFGSFKLKSGRESPYFFNLGLFNTGKLLSNLATAYAIAIIQSDLKFDVIFGPAYKGIPLAAIVCVKLAEIGGSKFQNIQYAFNRKEAKDHGEGGIIVGSALENKRILIIDDVMTAGTAINEAFEIISNAKGQVVGSIIALDRQEVVSTDDKEGLSATQTVSKKYGIPVLSIVSLIHIITYLEGRITAEEKSKIEQYLQTYGASA	soluble
MGSDKIHHHHHHMYRSRNRPKRGGENEVKGPNSALTQFLREEGISAENIKQKWYQRQSKKQEDATDEKKGKAEDDSFTAEISRVVEDEEIDEIGTGSGTETERAQVSYDARMKLVPADSDEEEYETSHISDTPVSLSSANDRESLTKKRQNTAKIIQNRRRKRKRAADLLDRRVNKVSSLQSLCITKISENISKWQKEADESSKLVFNKLRDVLGGVSTANLNNLAKALSKNRALNDHTLQLFLKTDLKRLTFSDCSKISFDGYKTLAIFSPHLTELSLQMCGQLNHESLLYIAEKLPNLKSLNLDGPFLINEDTWEKFFVIMKGRLEEFHISNTHRFTDKSLSNLLINCGSTLVSLGLSRLDSISNYALLPQYLVNDEFHSLCIEYPFNEEDVNDEIIINLLGQIGRTLRKLVLNGCIDLTDSMIINGLTAFIPEKCPLEVLSLEESDQITTDSLSYFFSKVELNNLIECSFRRCLQLGDMAIIELLLNGARDSLRSLNLNSLKELTKEAFVALACPNLTYLDLGFVRCVDDSVIQMLGEQNPNLTVIDVFGDNLVTEKATMRPGLTLIGRQSDSI	not soluble
MPRPRVLLLGDPARHLDDLWSDFQQKFEVIPANLTTHDGFKQALREKRYGDFEAIIKLAVENGTESYPWNADLISHLPSSLKVFAAAGAGFDWLDLDALNERGVAFANSRGAGDTATSDLALYLILSVFRLASYSERAARTGDPETFNRVHLEIGKSAHNPRGHVLGAVGLGAIQKEIARKAVHGLGMKLVYYDVAPADAETEKALGAERVDSLEELARRSDCVSVSVPYMKLTHHLIDEAFFAAMKPGSRIVNTARGPVISQDALIAALKSGKLLSAGLDVHEFEPQVSKELIEMKHVTLTTHIGGVAIETFHEFERLTMTNIDRFLLQGKPLLTPAGKVFAPSSAA	soluble
PHDDSYWDRVLTHGKNCIKYTPNNAASLHNAIRLLNESPWMKVTMGLEALNVAQLYSAERCYMPIAQYLCSEHAPTSHHGAKARNNVKGYDHV	not soluble
MGSDKIHHHHHHMKTELVQVETEDSIVLHGAFYEAEQGKPAIIIMHGAAMNFYTGLGRFLPEILSEHGFSCLSANNRGHDFGTAPDHDRKPVIGLMRDIFKDCVKDVQALLHFLRSRGYPRVILLGHSQAIPKLLYAQNQLQFPEVQGMILVSPPPSVSKMMRYLTTDNYYERGLFKANELGEMGMYDQLIVLRGRGTMPWIFTVSTFLDFYGPNTPADTEELVKEIYCPMLLIRGSMDFPPVSMELMHNMKQNAAVPESVTIREINEASHFYSGQEKQLGNTILEWLDSY	not soluble
MKPIACLFAAFAALPVLAHAQTVQMPDVLAAEHALSLGKPVTATIDLTRCTGDTATTPAGTTRGGVTVNPYRIQPDNTLSFSDTHFTVRSDGTPITQFLRYSIDTSGTARFSSYIFAMPAYTLQSQVSYTCKLGEGVKLFARFLEHHHHHH	soluble
MIEISTSSTTTTLLVAGDLDLAEREQFPEVTARVVGLRRQLLVIDMCRVTFMDSTGAAFLISLADAGRRRGGATVLRGAADRDLFVLEICGALELFRIDADHHCELGAELPSAPEGAPAPA	not soluble
MSLKDFAGRTAFVTGGANGVGIGLVRQLLNQGCKVAIADIRQDSIDKALATLEAEGSGPEVMGVQLDVASREGFKMAADEVEARFGPVSILCNNAGVNLFQPIEESSYDDWDWLLGVNLHGVVNGVTTFVPRMVERVKAGEQKGGHVVNTASMAAFLAAGSPGIYNTTKFAVRGLSESLHYSLLKYEIGVSVLCPGLVKSYIYASDDIRPDALKGEVKPVDKTAVERLAGVHEFGMEPDVIGARVIEAMKANRLHIFSHPDHKEELREVFDEIIAEYQDYPKDPGYDQRVAFEKFRADSFAEARRQSRAADEGHHHHHH	soluble

Reference: the DeepSol protein solubility set
